The target in the experiment is T1, von Willebrand factor, human plasmatic (human, UniProt P04275 764-2813).
T1 construct: von Willebrand factor, human, from plasma; multimeric glycoprotein; Multimer of disulfide-linked subunits; The results call the VWF of the ELISA recombinant, but the methods name plasmatic VWF; also called VWF; plasmatic VWF; source: bought: Calbiochem (human plasmatic VWF)
The experiment in a line: ELISA; 96-well plates coated with 20 µg/ml AV; human plasmatic VWF added at 0.15, 0.5, 1.0 and 1.5 µg/ml; bound VWF detected colorimetrically with peroxidase-labelled anti-human VWF antibody; washing with calcium-free buffer. The following applies: both partners purified. A general note: An ELISA detects its analyte on a solid surface through an enzyme-linked reagent.

We go through one molecule from publication PMC6053440, “Cellular stress induces erythrocyte assembly on intravascular von Willebrand factor strings and promotes microangiopathy” (Scientific Reports, 2018).

T1 sequence (P04275 764-2813): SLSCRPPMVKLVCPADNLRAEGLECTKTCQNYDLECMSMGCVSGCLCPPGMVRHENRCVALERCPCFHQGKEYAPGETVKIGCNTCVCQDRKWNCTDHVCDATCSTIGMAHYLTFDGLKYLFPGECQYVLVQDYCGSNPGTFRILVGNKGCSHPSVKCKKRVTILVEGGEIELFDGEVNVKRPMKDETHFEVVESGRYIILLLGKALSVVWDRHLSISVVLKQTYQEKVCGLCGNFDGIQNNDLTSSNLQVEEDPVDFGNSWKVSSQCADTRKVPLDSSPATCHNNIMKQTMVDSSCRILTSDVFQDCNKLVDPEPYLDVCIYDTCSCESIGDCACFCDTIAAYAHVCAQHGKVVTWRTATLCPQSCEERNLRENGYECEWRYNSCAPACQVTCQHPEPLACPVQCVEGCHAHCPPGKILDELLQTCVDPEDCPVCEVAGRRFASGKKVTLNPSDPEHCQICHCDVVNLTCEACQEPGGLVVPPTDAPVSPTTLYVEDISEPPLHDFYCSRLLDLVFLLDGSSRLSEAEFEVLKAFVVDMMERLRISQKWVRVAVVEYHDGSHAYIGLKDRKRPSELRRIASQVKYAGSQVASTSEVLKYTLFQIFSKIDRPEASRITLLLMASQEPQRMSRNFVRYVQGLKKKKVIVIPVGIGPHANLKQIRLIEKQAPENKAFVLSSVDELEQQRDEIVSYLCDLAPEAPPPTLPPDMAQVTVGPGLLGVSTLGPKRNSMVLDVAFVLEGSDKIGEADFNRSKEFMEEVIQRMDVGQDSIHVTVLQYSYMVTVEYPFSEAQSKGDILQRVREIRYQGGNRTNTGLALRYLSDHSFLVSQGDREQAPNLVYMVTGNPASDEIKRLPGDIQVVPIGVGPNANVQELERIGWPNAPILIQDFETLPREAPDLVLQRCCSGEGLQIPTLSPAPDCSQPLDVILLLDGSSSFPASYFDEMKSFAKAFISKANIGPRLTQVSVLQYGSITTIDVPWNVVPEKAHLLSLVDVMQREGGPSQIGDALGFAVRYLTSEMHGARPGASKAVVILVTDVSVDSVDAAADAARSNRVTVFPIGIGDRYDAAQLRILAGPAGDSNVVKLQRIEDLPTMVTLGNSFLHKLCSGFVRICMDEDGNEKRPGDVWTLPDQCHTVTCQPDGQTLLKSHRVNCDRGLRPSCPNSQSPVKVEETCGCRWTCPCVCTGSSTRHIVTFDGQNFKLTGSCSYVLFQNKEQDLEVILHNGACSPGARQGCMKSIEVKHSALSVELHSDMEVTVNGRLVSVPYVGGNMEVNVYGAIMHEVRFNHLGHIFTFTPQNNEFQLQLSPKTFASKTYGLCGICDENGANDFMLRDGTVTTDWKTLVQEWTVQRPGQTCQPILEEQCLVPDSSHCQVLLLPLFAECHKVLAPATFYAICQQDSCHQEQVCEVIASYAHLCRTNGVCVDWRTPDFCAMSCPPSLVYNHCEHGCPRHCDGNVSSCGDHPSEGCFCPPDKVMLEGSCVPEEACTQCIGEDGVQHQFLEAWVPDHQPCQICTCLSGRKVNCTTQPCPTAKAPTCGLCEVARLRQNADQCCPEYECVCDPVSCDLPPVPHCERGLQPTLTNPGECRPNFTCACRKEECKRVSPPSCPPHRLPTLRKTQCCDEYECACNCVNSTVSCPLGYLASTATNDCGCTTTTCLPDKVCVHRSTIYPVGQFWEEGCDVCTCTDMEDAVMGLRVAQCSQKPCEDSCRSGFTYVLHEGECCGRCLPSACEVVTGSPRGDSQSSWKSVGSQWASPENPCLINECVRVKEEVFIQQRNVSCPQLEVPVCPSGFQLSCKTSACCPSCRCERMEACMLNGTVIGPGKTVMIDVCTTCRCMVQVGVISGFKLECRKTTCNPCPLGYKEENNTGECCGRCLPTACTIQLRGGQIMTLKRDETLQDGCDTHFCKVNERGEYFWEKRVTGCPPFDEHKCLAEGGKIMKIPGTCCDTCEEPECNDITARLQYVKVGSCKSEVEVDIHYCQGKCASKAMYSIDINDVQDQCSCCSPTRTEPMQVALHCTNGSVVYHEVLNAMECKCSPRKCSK

B1: Annexin V (natural protein, human, UniProt P08758 1-320, looked up)
chain: MAQVLRGTVTDFPGFDERADAETLRKAMKGLGTDEESILTLLTSRSNAQRQEISAAFKTLFGRDLLDDLKSELTGKFEKLIVALMKPSRLYDAYELKHALKGAGTNEKVLTEIIASRTPEELRAIKQVYEEEYGSSLEDDVVGDTSGYYQRMLVVLLQANRDPDAGIDEAQVEQDAQALFQAGELKWGTDEEKFITIFGTRSVSHLRKVFDKYMTISGFQIEETIDRETSGNLEQLLLAVVKSIRSIPAYLAETLYYAMKGAGTDDHTLIRVMVSRSEIDLFNIRKEFRKNFATSLYSMIKGDTSGDYKKALLLLCGEDD
notes: Annexin V (annexin A5), human, purified from placenta; The methods of the ELISA name AV purified from human placenta (Sigma-Aldrich), but the results call it recombinant AV; In the flow adhesion experiments purified recombinant AV (BD Biosciences, 10 µg/ml) was added, and the erythrocytes' own AV was also present; also called AV; source: bought: Sigma-Aldrich, purified AV from human placenta
As to B1, the binding result is given as “binds”.
